Measured values published in paper PMC5364666, “Human MFAP1 is a cryptic ortholog of the Saccharomyces cerevisiae Spp381 splicing factor” (BMC Evolutionary Biology, 2017).

T1: S. cerevisiae Spp381 (pre-mRNA-splicing factor suppressor of prp38-1), full-length wild type (S. cerevisiae, UniProt P38282 1-291)
T1 construct: Spp381, S. cerevisiae, UniProt P38282, ORF amplified from genomic DNA; also called scSpp381; scSpp381^FL; source: E. coli Rosetta 2 (DE3) or BL21 (DE3) RIL, purified (Ni-NTA, TEV cleavage, SEC); not shown: His6, N-terminal, cleaved
T1 sequence (looked up): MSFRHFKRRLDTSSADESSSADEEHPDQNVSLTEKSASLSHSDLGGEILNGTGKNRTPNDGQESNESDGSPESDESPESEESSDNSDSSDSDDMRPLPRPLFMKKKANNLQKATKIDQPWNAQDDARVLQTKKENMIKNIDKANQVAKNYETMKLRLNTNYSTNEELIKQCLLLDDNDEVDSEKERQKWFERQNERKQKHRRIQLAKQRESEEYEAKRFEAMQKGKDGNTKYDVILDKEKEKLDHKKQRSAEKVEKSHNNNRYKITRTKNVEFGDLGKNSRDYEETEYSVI

B1: S. cerevisiae Prp38 (pre-mRNA processing factor 38 domain containing protein), full-length wild type (natural protein, UniProt Q00723 1-242, looked up)
chain: MAVNEFQVESNISPKQLNNQSVSLVIPRLTRDKIHNSMYYKVNLSNESLRGNTMVELLKVMIGAFGTIKGQNGHLHMMVLGGIEFKCILMKLIEIRPNFQQLNFLLNVKNENGFDSKYIIALLLVYARLQYYYLNGNNKNDDDENDLIKLFKVQLYKYSQHYFKLKSFPLQVDCFAHSYNEELCIIHIDELVDWLATQDHIWGIPLGKCQWNKIYNSDEESSSSESESNGDSEDDNDTSSES
notes: Prp38, S. cerevisiae, ORF amplified from genomic DNA; also called scPrp38; source: E. coli Rosetta 2 (DE3) or BL21 (DE3) RIL, purified (Ni-NTA, TEV cleavage, SEC); not shown: His6, N-terminal, cleaved

Legend:
Conditions in all cases: both partners purified
[1] = target: B1; experiment: SEC; analytical gel filtration of two proteins: 50 uM each, equimolar, incubated 30 min at 4 °C in SEC buffer (10 mM Tris-HCl pH 8.0, 300 mM NaCl, 0.1 mM EDTA, 1 mM DTT); Superdex 75 or Superdex 200 Increase columns at 4 °C; peak fractions by SDS-PAGE
[2] = target: T1, S. cerevisiae Spp381 (pre-mRNA-splicing …); experiment: as above
[3] = target: B1; experiment: SEC; analytical gel filtration of three proteins (scSnu23 116-169, scPrp38, scSpp381 177-248) on a Superdex 75 10/300 column; fractions by SDS-PAGE

Row | binding result [1] | Binder | also measured
1 | binds | Human MFAP1 (microfibrillar-associated protein 1) residues 267-344 (domain or fragment, the minimal fragment used for crystallization of the hsPrp38-hsMFAP1 complex; source: E. coli Rosetta 2 (DE3) or BL21 (DE3) RIL, purified (Ni-NTA, TEV cleavage, SEC); not shown: His6, N-terminal, cleaved) not shown | –
2 | – | B1 | binding result [2]: binds
3 | binds | S. cerevisiae Spp381 residues 177-248 (domain or fragment, UniProt P38282 177-248, looked up, also called scSpp381^177-248; source: E. coli Rosetta 2 (DE3) or BL21 (DE3) RIL, purified (Ni-NTA, TEV cleavage, SEC); not shown: His6, N-terminal, cleaved) NDEVDSEKERQKWFERQNERKQKHRRIQLAKQRESEEYEAKRFEAMQKGKDGNTKYDVILDKEKEKLDHKKQ | –
4 | – | S. cerevisiae Snu23 (23 kDa small nuclear ribonucleoprotein component) residues 116-169 (domain or fragment, UniProt Q12368 116-169, looked up) LIIDIRDNDDVPQEEFELCYHNLIKDFVEVRSMETQSKRKRLLDTDVEKAKKVA | binding result [3]: binds
